Numbering of substitutions follows the chain as printed. No end group written: not given here.

The target in this experiment is T1, Peptide 29 (Pep29) (Plasmodium falciparum 3D7, also: biotin, position not given here).
T1 chain: NANPNANPNANPNAN
Description: BLI. On the technique in general: In BLI a coated tip is dipped into the sample, and binding shifts an interference pattern.

B1: CIS43_Var11 Fab (Fab, V domains shown)
VH: QRQLVQSGAEVKKPGASVKVSCKASGYTFTSYAIHWVRQAPGQRLEWMGWIKAGNGNTRYSQKFQDRVTITRDTSTTTAYMELSSLRSEDTAVYYCALLTVLTPDDAFDIWGQGTMVTVSS
VL: not shown
With B1, the binding result is on record as “binds”.

B2: CIS43_Var18 Fab (Fab, V domains shown)
VH: B1 VH with A97V
VL: not shown
As for B2, the binding result is listed as “binds”.

The values above are taken from paper PMC9242090 (The Journal of Experimental Medicine, 2022).
